Experimental data: patent publication US20080112926A1 (PROTAFFIN BIOTECHNOLOGIE, published 2008)
Residue numbers refer to the chain shown, from its start.

B1: IL-8 mutant Δ6 F17RF21R E70RN71K (ligand)
chain: CQCIKTYSKPRHPKRIKELRVIESGPHCANTEIIVKLSDGRELCLDPKENWVQRVVEKFLKRARKS
notes: Δ6 means the first 6 N-terminal amino acids are deleted
B2: IL-8 mutant Δ6 F17RF21R E70K (ligand)
chain: B1 chain with R64K, K65N
notes: as for B1

Target: the molecule itself
Experiment: fluorescence anisotropy with bis-ANS in PBS, self-association (dimerisation), no GAG
Protocol: By recording the concentration dependent fluorescence anisotropy of the chemokine resulting from the extrinsic chromophore bisANS it was aimed to find out the dimerisation constant of the mutants. Measurements were performed in PBS starting with high concentrations (up to 4 μM protein) followed by stepwise dilution. For each data point, the anisotropy signal (r) recorded at 507 nm was averaged over 60 sec.
IL-8 oligomerisation has been reported to relevantly influence the proteins GAG binding properties. Set at monomeric concentration, IL-8 bound size defined oligosaccharides 1000-fold tighter than at dimeric concentration. Therefore, the oligomerisation properties of IL-8 mutants were investigated by fluorescence anisotropy. Since the IL-8 intrinsic fluorophore (Trp57) was not sensitive enough for all of the mutants, the extrinsic fluorophore bis-ANS was used for these measurements. […] The mutant with the highest koligo(koligo=460 nM), which therefore dimerised worst, was Δ6 F17RF21R E70RN71K. […] Also the impact of heparan sulphate addition was observed.

Protein	koligo (oligomerisation constant)
B1	460 nM
B2	147 nM
